Reference: FireProtDB (doi:10.1006/jmbi.1993.1336)

Details: Aspergillus oryzae (strain ATCC 42149 / RIB 40), GdnHCl, Fluorescence, reversible: yes, whole UniProt chain shown
[1] = pH 5, 25 °C, Sodium acetate 0.1 M

B1: Guanyl-specific ribonuclease T1 wild type, P00651 (protein)
chain: MMYSKLLTLTTLLLPTALALPSLVERACDYTCGSNCYSSSDVSTAQAAGYQLHEDGETVGSNSYPHKYNNYEGFDFSVSSPYYEWPILSSGDVYSGGSPGADRVVFNENNQLAGVITHTGASGNNFVECT
denaturant m value [1]: 2.75 kcal/mol/M | denaturant midpoint (higher = more stable) [1]: 3.64 M | unfolding free energy [1]: 10 kcal/mol | denaturant m value (pH 8, 10 °C, Tris 0.1 M): 2.63 kcal/mol/M | denaturant midpoint (higher = more stable) (pH 8, 10 °C, Tris 0.1 M): 3.21 M | unfolding free energy (pH 8, 10 °C, Tris 0.1 M): 8.44 kcal/mol | denaturant m value (pH 8, 25 °C, Tris 0.1 M): 2.46 kcal/mol/M | denaturant midpoint (higher = more stable) (pH 8, 25 °C, Tris 0.1 M): 2.4 M | unfolding free energy (pH 8, 25 °C, Tris 0.1 M): 5.91 kcal/mol
